The target in the assay is GP46 protein of Lactococcus lactis phage vB_Llc_bIBBF13 (F13), purified, SUMO tag removed (Lactococcus lactis phage vB_Llc_bIBBF13 (F13)). Nature of the assay: SEC-MALS; GP46F13 100 ul injected at 1.5 mg/ml on Superdex 200 Increase 10/300, room temperature, 0.5 ml/min, 50 mM Tris-HCl pH 8, 500 mM NaCl, 20 mM imidazole, no cofactors.

Usually stoichiometry N stands for a count of units in the complex or per binding partner. For the substance “GP46 protein of Lactococcus lactis phage vB_Llc_bIBBF13 (F13), purified, SUMO tag removed (enzyme)”, the stoichiometry N turned out to be 2.

Source of the values: article PMC8965321.
